Measured values from publication doi:10.1101/2023.08.25.554718.

Legend:
Assay in all cases: EMSA
Details in all cases: EMSA: 20 mM HEPES pH 7.3, 150 mM NaCl, 0.5 mM TCEP, 30 min room temperature, 0.5 uM nucleosome or DNA, FRET: 20 mM HEPES pH 7.1, 100 mM NaCl
MBP-DBD C/EBPalpha = MBP-DBD C/EBPalpha (UniProt P53566)
[1] = target: PU.1 ETS (ETSPU.1) (mouse) (UniProt P17433)
[2] = target: PU.1 ETS Q218H Q218H (mouse) (UniProt P17433)

Chain of MBP-DBD C/EBPalpha (P53566 214-359): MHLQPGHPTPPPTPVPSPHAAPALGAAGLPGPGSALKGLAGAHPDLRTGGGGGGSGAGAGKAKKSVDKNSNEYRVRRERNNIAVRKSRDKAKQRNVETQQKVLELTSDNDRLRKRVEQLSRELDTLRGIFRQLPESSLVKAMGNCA

Sequence	Kd (MBP-DBD C/EBPalpha) [µM]	fold reduction in binding affinity (fold reduction in affinity vs WT H2A) [1]	binding signal (fold reduction in affinity vs WT) [2]
TAGGTGCAGGGCCTCTCGGCTGCTGATCTTCAGCAACTTGCTGAGAGTTGCAGCATTGCTGAGTCTTAGCAATGGATACTTCCCGATTCCCCTCACAAAAATAGGTCAGTCTGTCTGGCTAGTTCTGTACTTGCAGACACAGGGCATGTGGGGTTCCTATTT (double strand) [Cmut CX3CR1 nucleosome]	2.4	–	–
TAGGTGCAGGGCCTCTCGGCTGCTGATCTTCAGCTGGTTGCTGAGAGTTGCAGCATTGCTGAGTCTTAGCAATGGATACTTCCCGATTCCCCTCACAAAAATAGGTCAGTCTGTCTGGCTAGTTCTGTACTTGCAGACACAGGGCATGTGGGGTTCCTATTT (double strand) [162 bp CX3CR1 nucleosome, 3A H2A (K75A;K76A;T77A)]	–	3	–
TAGGTGCAGGGCCTCTCGGCTGCTGATCTTCAGCTGGTTGCTGAGAGTTGCAGCATTGCTGAGTCTTAGCAATGGATACTTCCCGATTCCCCTCACAAAAATAGGTCAGTCTGTCTGGCTAGTTCTGTACTTGCAGACACAGGGCATGTGGGGTTCCTATTT (double strand) [162 bp CX3CR1 nucleosome]	1.7	–	2
